Changes are numbered by the printed parent chain. Where no end group is shown, it is not given here.

The text below walks through data of patent publication US20200148732A1 (UNIVERSITY OF COPENHAGEN, published 2020).

The target of assay [1] is T1, TONSL acidic stretch and ARD (aa. 450-692) (human, UniProt Q96HA7 450-692).
T1 sequence: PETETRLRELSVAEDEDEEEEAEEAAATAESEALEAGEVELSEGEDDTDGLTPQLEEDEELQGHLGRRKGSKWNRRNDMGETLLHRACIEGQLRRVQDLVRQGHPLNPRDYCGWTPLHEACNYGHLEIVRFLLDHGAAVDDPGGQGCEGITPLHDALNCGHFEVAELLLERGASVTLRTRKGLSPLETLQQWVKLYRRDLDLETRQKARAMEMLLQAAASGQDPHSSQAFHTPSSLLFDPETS
The assay can be described thus: ITC, peptide injected into TONSL (450-692); the value stands without a heading in the legend box, in the column where the other peptide has NB. Background: In ITC the heat of successive injections is recorded.

Assay [2] deals with T2, TONSL Ankyrin Repeat Domain (ARD, residues 512-692), purified recombinant (human, UniProt Q96HA7 512-692).
T2 construct: Expressed as a GST fusion in E. coli; Used in ITC, peptide pull-down and native MS; also called TONSL ARD; TONSL-ARD
T2 sequence: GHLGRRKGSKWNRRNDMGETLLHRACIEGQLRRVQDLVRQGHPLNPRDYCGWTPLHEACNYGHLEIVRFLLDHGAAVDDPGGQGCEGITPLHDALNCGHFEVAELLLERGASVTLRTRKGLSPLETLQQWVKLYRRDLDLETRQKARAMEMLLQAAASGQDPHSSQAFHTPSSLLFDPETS
As to the kind of experiment: ITC, peptide injected into TONSL ARD.

The target in assay [3] is T2, TONSL Ankyrin Repeat Domain (ARD, …). The assay can be described thus: native MS, titration Kd (constant peptide to protein ratio, decreasing protein concentration); Titration Kd; no apparent Kd given for Example 11. On the procedure: (§1) The mass spectrometry (MS) analysis were carried out on an electrospray time-of-flight mass spectrometer (LCT, Waters, Manchester, UK) equipped with an automated chip-based nanoESI device (Triversa Nanomate, Advion Biosciences, Ithaca, N.Y.). External calibration was done in the positive ion mode over the mass range m/z 200-6000 using the multiply charged ions produced by 0.4 μM horse heart myoglobin solution diluted in water/acetonitrile 50/50 mixture acidified with 0.5% (v/v) formic acid. […] […] Incubations were performed at room temperature for 15 min. Mass spectra were recorded using reduced cone voltage (Vc=50 V) and elevated interface pressure (Pi=5 mbar) which correspond to fine-tuned instrumental settings providing sufficient ion desolvation while preserving the integrity of weak non-covalent complexes in the gas phase. Micromass MassLynx 4.1 was used for data acquisition and processing.
(§2) This protein proportion is used to calculate the bound protein, the free protein and the free peptide concentrations. The Kd is calculated by using the following equation for each protein/peptide concentration. The final Kd for each peptide is the average of the Kd at different protein/peptide ratio.

Assay [4] shares this target. The assay can be described thus: native MS, abundance of the 1:1 protein-peptide complex, 10 µM TONSL ARD. On the procedure:
The mass spectrometry (MS) analysis were carried out on an electrospray time-of-flight mass spectrometer (LCT, Waters, Manchester, UK) equipped with an automated chip-based nanoESI device (Triversa Nanomate, Advion Biosciences, Ithaca, N.Y.). External calibration was done in the positive ion mode over the mass range m/z 200-6000 using the multiply charged ions produced by 0.4 μM horse heart myoglobin solution diluted in water/acetonitrile 50/50 mixture acidified with 0.5% (v/v) formic acid. […] The protein concentration was set to 10 μM and different peptide concentrations ranging from 1 to 5 molar equivalents were added. Incubations were performed at room temperature for 15 min. Mass spectra were recorded using reduced cone voltage (Vc=50 V) and elevated interface pressure (Pi=5 mbar) which correspond to fine-tuned instrumental settings providing sufficient ion desolvation while preserving the integrity of weak non-covalent complexes in the gas phase. Micromass MassLynx 4.1 was used for data acquisition and processing.
The proportion of 1:1 stoichiometry complex is calculated according to the following equation: […]

Assay [5] shares this target. The assay can be described thus: native MS, apparent Kd.
For assay [6] the target is unchanged. The assay can be described thus: native MS, titration Kd (constant peptide to protein ratio, decreasing protein concentration). As for the experimental part: as §1, §2
Assay [7] concerns the target T3, MCM2 Histone-binding Domain (HBD, residues 61-130) (human, UniProt P49736 61-130).
T3 construct: In the crystal it is linked to TONSL ARD by the G4 linker; also called MCM2 HBD
As to the kind of experiment: GST pull-down of recombinant H3-H4 and MCM2 HBD with GST-TONSL ARD, stained gel (MCM2 HBD offered together with H3-H4).

T3 sequence (P49736 61-130): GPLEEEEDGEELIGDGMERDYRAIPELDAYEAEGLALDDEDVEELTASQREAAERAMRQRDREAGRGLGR

B1: histone H4 (residues 9-25) peptide, unmodified (peptide)
peptide: GLGKGGAKRHRKVLRDN
notes: Synthesised at Tufts University Core Facility; also called H4 (9-25); H4 tail (9-25)
For the molecule B1, in assay [1], the Kd was determined as 1.5 µM.
As to GLGKGGAKRWRKVLRDN (His18 mutated to Trp18) [histone H4 (residues 9-25) peptide H18W], in assay [2], the binding result is “no binding (tested: molar ratio about 1.8)”.
For LGKGGAKRHRKVLRDNI (C-terminal amide (-NH2), Bought from JPT Peptide Technologies), the Kd in assay [3] was found to be 0.077 µM.
KGGAKRHRKVLR-NH2 [Lys-Gly-Gly-Ala-Lys-Arg-His-Arg-Lys-Val-Leu-Arg-NH2, Example 13]: the “% P1L1” value in assay [4] came to 89.9%. The Kd turned out to be 0.1 µM in assay [5] and 0.31 µM in assay [6].
As to KGGAARHRKVLR-NH2 (H4 12-23 with Lys16 replaced by Ala) [Lys-Gly-Gly-Ala-Ala-Arg-His-Arg-Lys-Val-Leu-Arg-NH2, Example 15], in assay [4], the “% P1L1” value came to 81.4%. Besides, the Kd in assay [5] was 0.4 µM.
As to KGGAKRHAKVLR-NH2 (H4 12-23 with Arg19 replaced by Ala) [Lys-Gly-Gly-Ala-Lys-Arg-His-Ala-Lys-Val-Leu-Arg-NH2, Example 14], in assay [4], the “% P1L1” value amounted to 73.3%. Besides, the Kd in assay [5] came to 1 µM; in assay [6], 0.96 µM.

B2: GST-TONSL ARD D559A (other)
chain: T2 sequence with D48A
notes: not shown: GST tag of the pGEX-6P-1 vector
As to B2, the binding result in assay [7] is “no binding”.

B3: GST-TONSL ARD E568A (other)
chain: T2 sequence with E57A
notes: as for B2
Take B3: the binding result in assay [7] is “no binding”.

B4: GST-TONSL ARD E530A (other)
chain: T2 sequence with E19A
notes: as for B2
Turning to B4, in assay [7], the binding result is listed as “no binding”.

B5: GST-TONSL ARD N571A (other)
chain: T2 sequence with N60A
notes: as for B2
In the case of B5, the binding result in assay [7] is “no binding”.

B6: GST-TONSL ARD D604A (other)
chain: T2 sequence with D93A
notes: as for B2
As to B6, the binding result in assay [7] is reported as “no binding”.

B7: GST-TONSL ARD W563A (other)
chain: T2 sequence with W52A
notes: as for B2
Regarding B7, the binding result in assay [7] is on record as “no binding”.
AKRHRKVLR-NH2 [Ala-Lys-Arg-His-Arg-Lys-Val-Leu-Arg-NH2, Example 12]: the “% P1L1” value in assay [4] is 62.6%. Besides, the figures for the Kd in assay [5] and in assay [6] were 2.2 µM and 1.95 µM, respectively.
